We go through eleven compounds from patent US9107936B2, “Antagonists of GRASP55 for use as a medicament” (Institut National de la Sante et de la Recherche Medicale …, priority 2012, dated 2015).

Where no end group is shown, it is not given here.

In data set [1] the target is T1, GST-PDZI′ (Grasp55 residues 1 to 107) (Mus musculus, UniProt Q99JX3).
T1 construct: GST fusion proteins encompassing residues 1 to 107; made in house; host or cells: bacteria Rosetta
The data set can be described thus: HTRF measurement of interaction of biotinylated C-terminal peptides with GST-PDZI′. Format: binding, murine. The following applies: for which Grasp55 construct's interaction with JAM-C is inhibited: NINDS library screening, PDZI′ and PDZI′+II′ recombinant GST proteins; for interaction of biotinylated peptide with PDZI′ GST construct: peptide 1.9*10^−7M. How it is done: (§1) To refine and extend the results obtained by yeast two hybrid, an Homogenous Time Resolved Fluorescence (HTRF) assay have been set-up to measure interactions of various peptides with recombinant GST proteins corresponding to different regions of Grasp55.
(§2) Briefly, the technique consisted in incubating 18 h at 4° C. the biotinylated-Cterminal peptides (SEQ ID NO: 26 to 34) at the concentration of 1.9*10^−7M with the GST-fusion protein, the terbium-coupled anti-GST antibody (8*10^−10M each) and the d2-coupled streptavidin (4*10^−8M) (both from Cisbio), in 0.1 mL of Hepes 0.05M, NaCl 0.15M BSA 0.1% pH 7.2. In some experiments, competing peptide or chemicals were added to the incubation mix at the indicated concentration. After incubation, microtiter plates (Costar #3693) were red using PolarScan Omega (BMG Labtech) equipped for HTRF measurements. Upon excitation at 320 nm, a 620 nm fluorescence emission is produced by the donor terbium that in turn excites a 665 nm light emission by a Streptavidin-d2 (acceptor) bound to the Biotinylated interacting Peptide if the latter is interacting with the donor. The […] R ratio is obtained and a Delta F is computed as: [(Rsample−RNSB)/RNSB]*100 where RNSB is the Non Specific Background signal determined in incubates where the GST-fusion protein was omitted.
(§3) Having shown that HTRF measurement of interaction is a reliable technology to identify inhibitors of interaction. A screen of a chemical compound library provided by MRCt has been initiated. The screening consisted in the same HTRF technique used in Example 7 except that compounds from the library were added in the incubation mix at the final concentration of 6.6×10^−5M. […] Since such a result could be either due to a specific inhibition of the JAM-C peptide interaction to the recombinant Grasp55 PDZ domains or to a non-specific inhibition of the FRET signal between donor and acceptor in HTRF technology, the twenty selected compounds have been further tested. Indeed, compounds could potentially interfere with the binding of the anti-GST antibody terbium-labeled to the GST of the fusion protein, the binding of Streptavidin-d2 to the biotinylated peptide or promote strong interference at 320, […] or 665 nm. Thus, the putative hits obtained were screened for non-specific inhibition. To this end, the GST-PDZI′+II′ recombinant protein was biotinylated using Sulfo-NHS Biotin according to manufacturer instructions (Pierce). This allows designing an HTRF assay in which the d2-coupled streptavidin (acceptor) and the terbium-coupled anti-GST antibody are directly bound to recombinant GST-PDZI′+II′ protein and produce DeltaF signal independently of the biotinylated peptide. The twenty selected compounds were thus tested in this assay to eliminate those giving false inhibition of the HTRF signals while inhibitors of Biotinylated peptide interaction with GST-PDZI′+II′ should not interfere in this assay.

Data set [2] deals with T2, GST-PDZI′+II′ (Grasp55 residues 1 to 208) (Mus musculus, UniProt Q99JX3).
T2 construct: and 1 to 208 corresponding respectively to the PDZI′, PDZII′ and PDZI′+II′ constructs; made in house; host or cells: bacteria Rosetta
The data set can be described thus: HTRF measurement of interaction of biotinylated C-terminal peptides with GST-PDZI′+II′. It is filed as binding, murine. The following applies: for interaction of biotinylated peptide with PDZI′+II′ GST construct: peptide 1.9*10^−7M. On the procedure:
as §1, §2, §3
In general terms: Time-resolved FRET reads energy transfer from a long-lived donor to a nearby acceptor.

A further data set deals with T3, ADAM10 (Mus musculus, UniProt O35598, DEL741-741).
T3 construct: expressed in transfected cells; host or cells: AH109 yeast strain
T3 sequence (O35598 with tags, fused parts or gaps DEL741-741): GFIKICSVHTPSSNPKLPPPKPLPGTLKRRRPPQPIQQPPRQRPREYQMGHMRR
The data set can be described thus: yeast two hybrid interaction of Grasp55 constructs with ADAM10 C-terminal sequence. Also on record: key: Symbols “+++” and “−” indicates the growth of yeast on selective media as shown in the FIGURE 13; Symbols “+++” and “−” indicates the growth of yeast on selective media as shown in the FIGURE 13. It is filed as binding, murine. The source says: (§4) The different GRASP55 constructs were cloned into pGBT9 GW vector (Ga14 DNA-binding domain fusion vector, Trp) as well in the pACT2 GW vector (Gal4 DNA-activation domain fusion vector, Leu) using the Gateway technology (Invitrogen). Plasmids were then co-transformed in AH109 yeast strain (/MATa, trp1-901, leu2-3, 112, ura3-52, his3-200, gal4/A, /gal80/A, /LYS2::GAL1//UAS//-GAL1//TATA//-HIS3, GAL2//UAS//-GAL2//TATA//-ADE2, URA3::MEL1//UAS//-MEL1//TATA//-lacZ, MEL1/) in accordance with the previously described transformation protocol (Chien et al. 1991. Proc Natl Acad Sci USA. 88:9578-82). Following co-transformation with the two vectors containing the different constructs (as well as the empty vector to test self activation), yeasts were plated onto Synthetic Complete (SC) medium minus Leucine (−L), minus Tryptophan (−W), minus Histidine (−H) and incubated at 30° C. for 4 to 5 days. All yeast media were prepared as previously described.
(§5) In examples 2, the inventors have previously shown that interaction between Grasp55 and C-terminal part of JAM-C requires the peptidic sequence between residues 1 to 160 of Grasp55 (PDZI+II) but cannot occur with residues 1 to 79 of Grasp55 (PDZI) by yeast two hybrid and ELISA assay (FIGS. 2 and 8). In the present example, the interaction sites between JAMs or metalloproteinases involved in JAM regulation and Grasp55 have been mapped using new constructs. To this end, yeast two-hybrid and GST fusion proteins encompassing residues 1 to 107, 108 to 208, and 1 to 208 corresponding respectively to the PDZI′, PDZII′ and PDZI′+II′ constructs have been generated. The former PDZII construct (residues 80 to 160) have also been used to test interaction with the C-terminal sequences of ADAM 10 (of sequence SEQ ID NO: 41) and ADAM 17 (of sequence SEQ ID NO: 42) known to regulate JAM-A and JAM-C release (Table 1). GST fusion proteins were produced and yeast two-hybrid assay was performed as previously described in example 1.

In the next data set the target is T4, JAM-C ΔPDZbm (Mus musculus, UniProt Q9D8B7).
T4 construct: amino-acids 263 to 310 of murine JAM-C; expressed in transfected cells; host or cells: AH109 yeast strain
T4 sequence (Q9D8B7 263-307 limits assumed): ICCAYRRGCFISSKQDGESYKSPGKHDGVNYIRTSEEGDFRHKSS
The data set can be described thus: yeast two hybrid interaction of Grasp55 constructs with JAM-C ΔPDZbm. It is filed as binding, murine. Also on record: key: Symbols “+++” and “−” indicates the growth of yeast on selective media as shown in the FIGURE 13; Symbols “+++” and “−” indicates the growth of yeast on selective media as shown in the FIGURE 13.
Description: as §4, §5

The next data set concerns the target T5, JAM-C (Mus musculus, UniProt Q9D8B7).
T5 construct: amino-acids 263 to 310 of murine JAM-C; expressed in transfected cells; host or cells: AH109 yeast strain
T5 sequence (Q9D8B7 263-310): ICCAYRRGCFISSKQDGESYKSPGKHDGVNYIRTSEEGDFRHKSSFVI
Nature of the data set: yeast two hybrid interaction of Grasp55 constructs with JAM-C. It is filed as binding, murine. Also on record: key: Symbols “+++” and “−” indicates the growth of yeast on selective media as shown in the FIGURE 13; Symbols “+++” and “−” indicates the growth of yeast on selective media as shown in the FIGURE 13.
Description: as §4, §5

A further data set concerns the target T6, ADAM17 (Mus musculus, UniProt Q9Z0F8, A775V/P752S).
T6 construct: expressed in transfected cells; host or cells: AH109 yeast strain
The data set can be described thus: yeast two hybrid interaction of Grasp55 constructs with ADAM17 C-terminal sequence. Format: binding, murine. Also on record: key: Symbols “+++” and “−” indicates the growth of yeast on selective media as shown in the FIGURE 13; Symbols “+++” and “−” indicates the growth of yeast on selective media as shown in the FIGURE 13.
Description: as §4, §5

The subject of the next data set is B16F10 cells. The data set can be described thus: wound healing assay (cell migration). The following applies: siRNA, 48 h post-transfection, measured over 6 h; sicontrol 167±13; Mean+/−SEM. Format: cell-based, mouse. On the procedure: Transient transfections were performed on a 50% confluent monolayer of B16F10 cells with either 10 nM of siRNA or 5 μg of shRNA against luciferase used as a control or shRNA against GRASP55 in Lipofectamine RNAimax (Invitrogen). Transfection efficiency was monitored at 24 h by qRT-PCR and Western blots for the expression of GRASP55 transcript or protein. For selection of stable transfectants, cells were grown in DMEM containing 10 μg/ml of puromycine (Sigma Aldrich) starting 48 h after transfection.
For in vitro wound healing assays, 80% confluent monolayers of wild-type B16F10 cells or B16F10 cells transfected with various siRNA or shRNA were grown in both chambers of Ibidi culture inserts with defined cell free gaps. Cells were subjected to serum starvation for 24 h, before wounds were created by removing Ibidi culture inserts that define cell gaps of 400 μm. The wound healing was carried out for 8 h in complete DMEM medium and was recorded at various times after wounding. Analysis of wound closure was performed using Metamorph software and is expressed as mean speed per minute.

Setting [3] is: competition with unlabelled JAM-C peptide.

T6 sequence (Q9Z0F8 693-827 P752S/A775V): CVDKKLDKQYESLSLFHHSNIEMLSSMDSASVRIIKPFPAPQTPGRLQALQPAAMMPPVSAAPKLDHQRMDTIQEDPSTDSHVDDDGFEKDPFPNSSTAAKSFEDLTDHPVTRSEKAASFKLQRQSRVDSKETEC

As to `CCN(CC)C(=S)SSC(=S)N(CC)CC` [Disulfiram, 1,1′,1″,1′″-[disulfanediylbis(carbonothioylnitrilo)]tetraethane], the “which Grasp55 construct's interaction with JAM-C is inhibited” value in data set [1] was “only with PDZI′+II′”.
Turning to “ΔPDZbm: control biotynilated JAM-C peptide lacking the three terminal amino-acids (SEQ ID NO: 31) (NYIRTSEEGDFRHKSS; also: biotinylated)”, the “interaction of biotinylated peptide with PDZI′+II′ GST construct” value (from here on “interaction … with PDZI′+II′ GST construct”) in data set [2] is recorded as “no signal over the background”.
Take `O=c1oc2c(O)c(O)cc3c(=O)oc4c(O)c(O)cc1c4c23` [Ellagic acid, 2,3,7,8-Tetrahydroxy-chromeno[5,4,3-cde]chromene-5,10-dione]: the “which Grasp55 construct's interaction with JAM-C is inhibited” value in data set [1] is “inhibit interaction with PDZI′ and PDZI′+II′”.
“JAM-A: biotinylated C-terminal peptide of JAM-A (SQPSTRSEGEFKQTSSFLV; also: biotinylated)”: the “interaction of biotinylated peptide with PDZI′ GST construct” value in data set [1] was “confirmed”. The “AppAff for GST-PDZI′+II′ compared with GST-PDZI′” value in data set [2] (setting [3]) was “higher AppAff”. In data set [2] (competition with unlabelled JAM-C peptide, GST-PDZI′ and GST-PDZI′+II′), the “apparent affinity (AppAff) compared with JAM-C” value is listed as “AppAff of JAM-C is equal to AppAff of JAM-A”. Also, the “interaction … with PDZI′+II′ GST construct” value in data set [2] is given as “confirmed”.
For “PDZI′ + II′: Grasp55 construct, residues 1 to 208”, in the data set with ADAM10, the “interaction with ADAM10 (yeast growth on selective media)” value is reported as “−”. Besides, in the data set with JAM-C ΔPDZbm, the “interaction with JAM-C ΔPDZbm (yeast growth on selective media)” value is given as “−”. Moreover, in the data set with JAM-C, the “interaction with JAM-C (yeast growth on selective media)” value is reported as “+++”. The “interaction with ADAM17 (yeast growth on selective media)” value with ADAM17 is on record as “−”.
On to “JAM-C: biotinylated C-terminal peptide of JAM-C (NYIRTSEEGDFRHKSSFVI; also: biotin)”, for which the “interaction of biotinylated peptide with PDZI′ GST construct” value in data set [1] was “confirmed”. In addition, in data set [2] (setting [3]), the “AppAff for GST-PDZI′+II′ compared with GST-PDZI′” value was “higher AppAff”. Also, the “interaction … with PDZI′+II′ GST construct” value in data set [2] was “confirmed”.
For “PDZII′: Grasp55 construct, residues 108 to 208”, the “interaction with ADAM10 (yeast growth on selective media)” value with ADAM10 is given as “−”. For the same compound, the “interaction with JAM-C ΔPDZbm (yeast growth on selective media)” value with JAM-C ΔPDZbm is given as “−”. Moreover, the “interaction with JAM-C (yeast growth on selective media)” value with JAM-C is given as “−”. The “interaction with ADAM17 (yeast growth on selective media)” value with ADAM17 is on record as “−”.
As for “siGRASP55#01: siRNA targeting Grasp55, SEQ ID NO: 6, 5′CGUCAUGAAUGAGUCUGAATT 3′, from Ambion (chemistry not given here)”, the mean velocity in the data set with B16F10 cells amounted to 82 ± 4 nm/min.
With “siGRASP55#1: siRNA targeting Grasp55, SEQ ID NO: 7, 5′AAGUGAUCAUCACACCAAATT 3′, from Ambion (chemistry not given here)”, in the data set on B16F10 cells, the mean velocity was 95 ± 8 nm/min.
As to `N.N.O=C([O-])C1(C(=O)[O-])CCC1.[Pt+2]` [Carboplatin, cis-Diammine(1,1-cyclobutanedicarboxylato)platinum(II)], the “which Grasp55 construct's interaction with JAM-C is inhibited” value in data set [1] was “preferentially inhibit the interaction of JAM-C with PDZI′”.
For “PDZI′: Grasp55 construct, residues 1 to 107”, in the data set with ADAM10, the “interaction with ADAM10 (yeast growth on selective media)” value is “−”. The “interaction with JAM-C ΔPDZbm (yeast growth on selective media)” value with JAM-C ΔPDZbm is “−”. Moreover, the “interaction with JAM-C (yeast growth on selective media)” value with JAM-C is “+++”. Further, the “interaction with ADAM17 (yeast growth on selective media)” value with ADAM17 is listed as “−”.
